Test results: patent US20080107662A1

Experiments:
[1] = target: Maltose Binding Protein (MBP) (E. coli) [MBP: P0AEX9]; assay: ELISA control without serum, antigen MBP
38C13 IgM Id = assay: ELISA control without serum, antigen 38C13 IgM Id
[2] = target: MBP-ABL (E. coli) [MBP: P0AEX9]; assay: ELISA control without serum, antigen MBP-ABL

Substance: Secondary Ab only (antibody)
- ELISA reading [1]: 0.055
- ELISA reading (38C13 IgM Id): 0.09
- ELISA reading [2]: 0.052
